# Test results reported in patent US20250042887A1, “GLYCOGEN SYNTHASE KINASE-3 (GSK3) INHIBITOR COMPOUNDS FOR USE AS ANTIVIRAL AGENTS” (priority 2021, published 2025).
# Like-named read-outs stand apart in the source and are kept apart here. Where no end group is shown, it is not given here. [ ]: non-standard residue; d: D form. pT = C[C@@H](OP(=O)(O)O)[C@H](N)C(=O)O; pS = N[C@@H](COP(=O)(O)O)C(=O)O
# Assays:
# [1] = target: T1, casein kinase 1-delta (Homo sapiens, UniProt P48730); experiment: In vitro phosphorylation of nucleocapsid peptides, ADP-Glo, CK1d; type: biochemical; details: peptide ~250 μM, 250 μM ATP, 30 min at 30° C.; duplicate measurements
# T1 construct: GST; purchased SignalChem C65-10G
# [2] = target: cyclin-dependent kinase 2/cyclin A2 (CDK2/A2) (Homo sapiens, UniProt P24941); experiment: In vitro phosphorylation of nucleocapsid peptides, ADP-Glo, CDK2/cyclin A2; type: biochemical; details: peptide ~250 μM, 250 μM ATP, 30 min at 30° C.; duplicate measurements
# [3] = target: T2, protein kinase C-alpha (PKC α) (Homo sapiens, UniProt P17252); experiment: In vitro phosphorylation of nucleocapsid peptides, ADP-Glo, PKCa; type: biochemical; details: for Relative Phosphorylation to No Kinase Control, PKCa: Mean ± S.Dev. (n = 3), no kinase control = 100; for Relative Phosphorylation to Autophosphorylation Control (set at 100), PKCa: peptide ~250 μM, 250 μM ATP, 30 min at 30° C., duplicate measurements
# T2 construct: GST; purchased SignalChem P61-18G
# [4] = target: T3, glycogen synthase kinase-3-beta (Homo sapiens, UniProt P49841); experiment: In vitro phosphorylation of nucleocapsid peptides, ADP-Glo, GSK3b; type: biochemical; details: for Relative Phosphorylation to No Kinase Control, GSK3b: Mean ± S.Dev. (n = 3), no kinase control = 100; for Relative Phosphorylation to Autophosphorylation Control (set at 100), GSK3b: peptide ~250 μM, 250 μM ATP, 30 min at 30° C., duplicate measurements
# T3 construct: GST; purchased SignalChem Go9-10G
# [5] = target: T4, casein kinase 2-alpha-1 (CK2a1) (Homo sapiens, UniProt P68400); experiment: In vitro phosphorylation of nucleocapsid peptides, ADP-Glo, CK2a1; type: biochemical; details: peptide ~250 μM, 250 μM ATP, 30 min at 30° C.; duplicate measurements
# T4 construct: GST; purchased SignalChem C70-10G
# [6] = target: T5, extracellularly-regulated kinase-1 (ERK1) (Homo sapiens, UniProt P27361); experiment: In vitro phosphorylation of nucleocapsid peptides, ADP-Glo, ERK1; type: biochemical; details: peptide ~250 μM, 250 μM ATP, 30 min at 30° C.; duplicate measurements
# T5 construct: GST; purchased SignalChem M29-10G
# [7] = system: PKCa + GSK3b; experiment: In vitro phosphorylation of nucleocapsid peptides, ADP-Glo, PKCa + GSK3b combined; type: biochemical, human; details: Mean ± S.Dev. (n = 3); no kinase control = 100
# [8] = target: T6, casein kinase 1-alpha-1 (CK1a1) (Homo sapiens, UniProt P48729); experiment: In vitro phosphorylation of nucleocapsid peptides, ADP-Glo, CK1a1; type: biochemical; details: peptide ~250 μM, 250 μM ATP, 30 min at 30° C.; duplicate measurements
# T6 construct: GST; purchased SignalChem C64-10G
# [9] = target: cAMP-dependent protein kinase catalytic subunit-alpha (PKACa) (Homo sapiens, UniProt P17612); experiment: In vitro phosphorylation of nucleocapsid peptides, ADP-Glo, PKACa; type: biochemical; details: peptide ~250 μM, 250 μM ATP, 30 min at 30° C.; duplicate measurements
# [10] = system: SARS-CoV-2; experiment: High-content screen of GSK3β-focused library in SARS-CoV-2 infected Huh-7.5.1 cells (dsRNA or nucleocapsid); type: cell-based; details: for inhibition at 10 µM: Severe acute respiratory syndrome coronavirus 2, single dose of 10 μM, Huh-7.5.1 cells; for Activity (SARS-CoV-2): see TABLE A
# [11] = system: Huh-7.5.1 cells; details: single dose of 10 μM
# Protocol: High content screening methodology and parameters. Monitoring of the total number of cells (based on nuclei staining) and number of virus infected cells (based on dsRNA and Nucleocapsid staining) was performed using the CellInsight CX7™ High Content Screening platform (Thermo Fisher™), as previously described (33042061). Shortly, nuclei are identified and counted using the 350′461 nm wavelength (Hoechst 33342™); cell debris and other particles are deducted based on a size filter tool. A Region of Interest (ROI, or “circle”) is then drawn around each host cell and validated against the bright field image to correspond with host cell membranes. The ROI encompasses the “spots”, where dsRNA (485/521 nm wavelength) and SARS-CoV-2 nucleocapsid (533/588 nm wavelength) are localized. Finally, the software (HCS Studio Cell Analysis Software™, version 4.0) identifies, counts and measures the pixel area and intensity of the spots within each circle. The fluorescent spot area measured within each cell (circle) is then added and quantified for each well. The total circle spot intensity of each well corresponds to the viral load, and is normalized to non-infected cells, and to cells infected with no compound. Nuclei stain (Hoechst 33342™) was used to quantify cell loss (due to cytotoxicity or loss of adherence), and to normalize the changes in viral load resulting from a decrease in cell numbers.
# [12] = system: HCoV-229E; experiment: High-content screen of GSK3β-focused library in HCoV-229E infected Huh-7.5.1 cells (intracellular dsRNA); type: cell-based, human coronavirus 229E (HCoV-229E); details: Human coronavirus 229E, single dose of 10 μM, Z′ 0.7
# [13] = system: SARS-CoV-2; experiment: Dose-response of SARS-CoV-2 viral load (intracellular N protein) in Huh-7.5.1 cells; type: cell-based; details: Severe acute respiratory syndrome coronavirus 2, Huh-7.5.1, Huh-7.5.1 cells, intracellular N protein; read-out: ED50 (SARS-CoV-2)
# [14] = system: HCoV-229E; experiment: Dose-response of HCoV-229E viral load (dsRNA) in Huh-7.5.1 cells; type: cell-based, human coronavirus 229E (HCoV-229E); details: Human coronavirus 229E, read-out: ED50 (HCoV-229E)
# [15] = system: SARS-CoV-2; design: effect on N protein phosphorylation and SARS-CoV-2 replication: dose or concentration left out as unconfirmed; details: cited from earlier work
# [16] = target: T7, casein kinase 1-gamma-1 (CK1γ1) (Homo sapiens, UniProt Q9HCP0); experiment: In vitro phosphorylation of nucleocapsid peptides, ADP-Glo, CK1g1; type: biochemical; details: peptide ~250 μM, 250 μM ATP, 30 min at 30° C.; duplicate measurements
# T7 construct: GST; purchased SignalChem C68-11G
# [17] = Z′ 0.3, read-out: SARS-CoV-2 inhibition (% dsRNA)
# [18] = average of screens 1 and 2, read-out: Average SARS-CoV-2 Nucleocapsid inhibition
# [19] = screen 1, Z′ 0.7, read-out: SARS-CoV-2 inhibition (% Nucleocapsid) 1
# [20] = screen 2, Z′ 0.5, read-out: SARS-CoV-2 inhibition (% Nucleocapsid) 2
# T4 sequence (P68400 whole entry): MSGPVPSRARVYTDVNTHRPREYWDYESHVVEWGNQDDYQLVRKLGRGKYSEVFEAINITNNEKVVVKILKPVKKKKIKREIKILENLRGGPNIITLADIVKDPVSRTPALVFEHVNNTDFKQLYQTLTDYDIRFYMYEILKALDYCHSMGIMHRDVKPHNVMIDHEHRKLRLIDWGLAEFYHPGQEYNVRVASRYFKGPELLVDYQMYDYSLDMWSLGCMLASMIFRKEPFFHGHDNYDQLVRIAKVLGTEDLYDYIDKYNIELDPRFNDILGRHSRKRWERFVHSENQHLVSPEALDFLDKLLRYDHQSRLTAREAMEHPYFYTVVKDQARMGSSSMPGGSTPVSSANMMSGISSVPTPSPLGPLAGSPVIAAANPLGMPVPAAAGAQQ
# T5 sequence (P27361 whole entry): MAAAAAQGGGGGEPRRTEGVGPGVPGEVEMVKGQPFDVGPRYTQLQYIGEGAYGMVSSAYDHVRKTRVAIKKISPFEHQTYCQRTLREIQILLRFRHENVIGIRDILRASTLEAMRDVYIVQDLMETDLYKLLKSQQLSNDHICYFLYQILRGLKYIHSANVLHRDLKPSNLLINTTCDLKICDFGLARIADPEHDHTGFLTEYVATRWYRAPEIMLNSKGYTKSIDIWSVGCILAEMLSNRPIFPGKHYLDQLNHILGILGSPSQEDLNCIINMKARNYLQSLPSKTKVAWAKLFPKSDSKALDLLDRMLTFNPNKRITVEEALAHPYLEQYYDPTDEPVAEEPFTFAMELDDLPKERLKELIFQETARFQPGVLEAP
# T1 sequence (P48730 whole entry): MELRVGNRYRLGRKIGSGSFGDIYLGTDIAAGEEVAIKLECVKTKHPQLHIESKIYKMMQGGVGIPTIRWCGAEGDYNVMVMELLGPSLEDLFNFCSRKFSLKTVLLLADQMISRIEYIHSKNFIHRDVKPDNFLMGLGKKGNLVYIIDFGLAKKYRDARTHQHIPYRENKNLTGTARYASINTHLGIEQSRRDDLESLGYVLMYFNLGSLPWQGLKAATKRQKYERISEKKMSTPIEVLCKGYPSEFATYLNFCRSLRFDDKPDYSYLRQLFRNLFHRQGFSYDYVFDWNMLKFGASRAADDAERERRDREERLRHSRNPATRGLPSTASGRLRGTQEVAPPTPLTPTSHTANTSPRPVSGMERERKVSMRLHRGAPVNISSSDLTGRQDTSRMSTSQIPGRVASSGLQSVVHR
# T3 sequence (P49841 whole entry): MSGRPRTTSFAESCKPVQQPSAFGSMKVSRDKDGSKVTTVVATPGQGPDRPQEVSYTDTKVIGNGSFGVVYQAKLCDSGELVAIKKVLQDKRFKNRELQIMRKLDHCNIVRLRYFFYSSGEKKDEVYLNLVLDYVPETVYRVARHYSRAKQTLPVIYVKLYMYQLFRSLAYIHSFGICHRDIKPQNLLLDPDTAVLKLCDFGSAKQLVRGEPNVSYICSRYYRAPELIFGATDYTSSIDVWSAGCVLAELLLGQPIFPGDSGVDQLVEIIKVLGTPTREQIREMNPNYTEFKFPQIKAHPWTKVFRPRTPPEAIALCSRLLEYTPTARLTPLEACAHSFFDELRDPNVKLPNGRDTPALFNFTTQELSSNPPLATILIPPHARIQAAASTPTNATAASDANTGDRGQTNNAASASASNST
# T6 sequence (P48729 whole entry): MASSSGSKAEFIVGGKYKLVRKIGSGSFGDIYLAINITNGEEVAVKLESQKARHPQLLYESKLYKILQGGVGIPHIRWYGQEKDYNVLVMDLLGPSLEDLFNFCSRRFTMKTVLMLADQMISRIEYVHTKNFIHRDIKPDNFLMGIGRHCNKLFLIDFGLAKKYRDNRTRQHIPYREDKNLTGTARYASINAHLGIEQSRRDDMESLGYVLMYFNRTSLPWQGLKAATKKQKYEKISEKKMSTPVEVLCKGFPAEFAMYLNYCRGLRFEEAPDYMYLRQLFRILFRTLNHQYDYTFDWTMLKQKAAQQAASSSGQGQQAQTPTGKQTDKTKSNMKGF
# T7 sequence (Q9HCP0 whole entry): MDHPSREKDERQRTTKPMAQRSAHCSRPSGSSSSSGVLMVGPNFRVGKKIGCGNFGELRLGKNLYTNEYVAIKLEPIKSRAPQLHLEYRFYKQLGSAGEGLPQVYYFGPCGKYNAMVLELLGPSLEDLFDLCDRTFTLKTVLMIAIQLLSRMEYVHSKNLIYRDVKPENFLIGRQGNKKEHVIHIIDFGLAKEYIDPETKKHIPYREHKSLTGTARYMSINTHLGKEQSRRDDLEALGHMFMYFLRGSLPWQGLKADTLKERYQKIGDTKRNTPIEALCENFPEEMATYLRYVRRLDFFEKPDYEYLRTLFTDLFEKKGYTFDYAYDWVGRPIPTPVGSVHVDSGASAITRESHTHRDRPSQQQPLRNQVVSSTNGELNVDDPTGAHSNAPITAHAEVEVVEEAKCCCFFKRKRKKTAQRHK
Molecule,"Relative Phosphorylation to No Kinase Control, PKCa [3]","Relative Phosphorylation to Autophosphorylation Control (set at 100), PKCa [3]","Relative Phosphorylation to No Kinase Control, GSK3b [4]","Relative Phosphorylation to Autophosphorylation Control (set at 100), GSK3b [4]","Relative Phosphorylation to Autophosphorylation Control (set at 100), PKACa [9]","inhibition at 10 µM [10, 17]","inhibition at 10 µM [10, 18]","inhibition at 10 µM [10, 19]","inhibition at 10 µM [10, 20]",Average cell loss (%) [11],inhibition at 10 µM [12],other results
"SSRSRNSSRNSTPG [SCV2-N [187-200], synthetic peptide modeled after SARS-CoV-2 nucleocapsid protein phosphorylation sites]","12,687 ± 486",1080,2573 ± 49,108,485,–,–,–,–,–,–,"Relative Phosphorylation to Autophosphorylation Control (set at 100), CK1d [1]: 100; Relative Phosphorylation to Autophosphorylation Control (set at 100), CDK2 + Cyclin A2 [2]: 100; Relative Phosphorylation to Autophosphorylation Control (set at 100), CK2a1 [5]: 103; Relative Phosphorylation to Autophosphorylation Control (set at 100), ERK1 [6]: 100; Relative Phosphorylation to No Kinase Control, PKCa + GSK3b [7]: 3692 ± 61; Relative Phosphorylation to Autophosphorylation Control (set at 100), CK1a1 [8]: 145"
Cc1nnc(-c2ccc3occ(-c4ccc([S+](C)[O-])c(OC(F)(F)F)c4)c3c2)o1 (stereo not shown) [Compound P-5782442],–,–,–,–,–,100%,93.8%,93.3%,94.4%,16.1%,60%,Activity (SARS-CoV-2) [10]: active (see TABLE A)
C[S+]([O-])c1ccc(-c2coc3ccc(-c4nnc(SCc5cccc(F)c5)o4)cc23)cc1 (stereo not shown) [Compound P-7657632],–,–,–,–,–,100%,93.1%,100%,86.2%,25.4%,100%,EC50 [13]: ~3 µM; EC50 [14]: ~3 µM
"RGGSQASSRSSSRS [SCV2-N [177-190], synthetic peptide modeled after SARS-CoV-2 nucleocapsid protein phosphorylation sites]","13,714 ± 502",1320,2161 ± 63,107,162,–,–,–,–,–,–,"Relative Phosphorylation to No Kinase Control, PKCa + GSK3b [7]: 3572 ± 22"
O=C(NCc1ccccn1)Nc1cc(N2CC(CCc3ccccc3)CC2=O)ccn1 (stereo not shown) [Compound P-4423632],–,–,–,–,–,100%,95.2%,98%,92.4%,12.0%,43.2%,Activity (SARS-CoV-2) [10]: active (see TABLE A)
CSc1ccc(-n2cnc3ccc(-c4nnc(CCc5cccc(C(F)(F)F)c5)o4)cc32)cc1 [Compound P-3817632],–,–,–,–,–,100%,71.4%,70.8%,72%,12.7%,87.7%,Activity (SARS-CoV-2) [10]: active (see TABLE A)
[Cl-].[Li+] [Lithium chloride],–,–,–,–,–,–,–,–,–,–,–,"IC50 ([15]; from reference [7], read-out: IC50 to inhibit N protein phosphorylation and SARS-CoV-2 replication in cells): 10000 µM"
COc1ccc(-n2cnc3ccc(-c4nnc(SCc5cccc(C#N)c5)o4)cc32)cc1 [Compound P-0780332],–,–,–,–,–,0.6%,0%,0%,0%,9.2%,0%,Activity (SARS-CoV-2) [10]: inactive (see TABLE A)
"SSRSRNSSRNS(pT)PG (SSRSRNSSRNS[pT]PG) [SCV2-N [187-200]-pT198, synthetic peptide modeled after SARS-CoV-2 nucleocapsid protein phosphorylation sites, pre-phosphorylated at T198]",7032 ± 319,553,"23,031 ± 486",1042,157,–,–,–,–,–,–,"Relative Phosphorylation to Autophosphorylation Control (set at 100), CK1d [1]: 152; Relative Phosphorylation to Autophosphorylation Control (set at 100), CDK2 + Cyclin A2 [2]: 101; Relative Phosphorylation to Autophosphorylation Control (set at 100), CK2a1 [5]: 102; Relative Phosphorylation to Autophosphorylation Control (set at 100), ERK1 [6]: 100; Relative Phosphorylation to Autophosphorylation Control (set at 100), CK1a1 [8]: 250"
"SQASSRSSSRSRNS [SCV2-N [180-193], synthetic peptide modeled after SARS-CoV-2 nucleocapsid protein phosphorylation sites]","16,366 ± 261",1278,2407 ± 23,102,123,–,–,–,–,–,–,"Relative Phosphorylation to Autophosphorylation Control (set at 100), CK2a1 [5]: 101; Relative Phosphorylation to No Kinase Control, PKCa + GSK3b [7]: 3836 ± 41"
"RNSTPGSSRGT(pS)PAR (RNSTPGSSRGT[pS]PAR) [SCV2-N [195-209]-pS206, synthetic peptide modeled after SARS-CoV-2 nucleocapsid protein phosphorylation sites, pre-phosphorylated at S206]",1531 ± 47,–,"24,082 ± 381",1068,205,–,–,–,–,–,–,"Relative Phosphorylation to Autophosphorylation Control (set at 100), CK1d [1]: 105; Relative Phosphorylation to Autophosphorylation Control (set at 100), CDK2 + Cyclin A2 [2]: 100; Relative Phosphorylation to Autophosphorylation Control (set at 100), CK1g1 [16]: 105; Relative Phosphorylation to Autophosphorylation Control (set at 100), ERK1 [6]: 100"
"RGGSQASSRSS(pS)RS (RGGSQASSRSS[pS]RS) [SCV2-N [177-190]-pS188, synthetic peptide modeled after SARS-CoV-2 nucleocapsid protein phosphorylation sites, pre-phosphorylated at S188]",3861 ± 71,389,"24,585 ± 645",1209,128,–,–,–,–,–,–,–
Cn1cc(C2=C(c3cn(C4CCN(Cc5ccccn5)CC4)c4ccccc34)C(=O)NC2=O)c2ccccc21 [Enzastaurin],–,–,–,–,–,–,–,–,–,–,–,"effect on infection ([15]; A549-ACE2 human lung cancer-derived cell line and Vero E6 cells, reference [7]): reduced infection; effect on N protein phosphorylation and SARS-CoV-2 replication ([15]; reference [7]): blocked N protein phosphorylation and SARS-CoV-2 replication"
CSc1ccc(-c2coc3ccc(-c4nnc(N)o4)cc23)cc1Cl [Compound P-9071942],–,–,–,–,–,100%,94.5%,100%,89.1%,29.9%,94.2%,EC50 [13]: ~3 µM; EC50 [14]: ~3 µM
"SQASSRSSSR(pS)RNS (SQASSRSSSR[pS]RNS) [SCV2-N [180-193]-pS190, synthetic peptide modeled after SARS-CoV-2 nucleocapsid protein phosphorylation sites, pre-phosphorylated at S190]",4161 ± 66,418,2957 ± 3,111,312,–,–,–,–,–,–,"Relative Phosphorylation to Autophosphorylation Control (set at 100), CK2a1 [5]: 100"
